The values below come from paper PMC7961094, “Development of a colorimetric α-ketoglutarate detection assay for prolyl hydroxylase domain (PHD) proteins” (The Journal of Biological Chemistry, 2021).

The Km is the substrate concentration at which the rate is half of its maximum. As usually defined, the kcat is the maximal rate divided by the concentration of active sites. By kcat/Km is commonly meant the turnover number divided by the Michaelis constant.

Substrate in data set [1]: O=C(O)CCC(=O)C(=O)O
The data set can be described thus: purified protein, by the assay type. The settings on record: pH 7.0, 37.0 °C.

Substrate in data set [2]: CC[C@H](C)[C@H](NC(=O)[C@H](Cc1ccc(O)cc1)NC(=O)[C@@H]1CCCN1C(=O)[C@H](C)NC(=O)[C@H](CC(C)C)NC(=O)[C@H](CCSC)NC(=O)[C@H](CCC(=O)O)NC(=O)[C@H](CC(C)C)NC(=O)[C@H](CC(=O)O)NC(=O)[C@H](CC(C)C)NC(=O)[C@@H](N)CC(=O)O)C(=O)N1CCC[C@H]1C(=O)N[C@@H](CCSC)C(=O)N[C@@H](CC(=O)O)C(=O)N[C@@H](CC(=O)O)C(=O)N[C@@H](CC(=O)O)C(=O)N[C@@H](Cc1ccccc1)C(=O)N[C@@H](CCC(N)=O)C(=O)N[C@@H](CC(C)C)C(=O)O
Put plainly: purified protein, by the assay type. The settings on record: pH 7.0, 37.0 °C.

In data set [3] the target is MBP-HA-PHD3 (full-length human prolyl hydroxylase domain protein 3) (human) (UniProt Q9H6Z9).
For data set [4] the target is unchanged. This is another data set of the same source.
The mark [5] stands for this setting: other: PHD3, HIF-1α CODD substrate, This work (Table 2).

Several values for one entry are separate records, joined by “and”; a condition that tells them apart may be missing. Equal values may be shown once.

B1: PHD3 (Homo sapiens) (protein)
chain: MPLGHIMRLDLEKIALEYIVPCLHEVGFCYLDNFLGEVVGDCVLERVKQLHCTGALRDGQLAGPRAGVSKRHLRGDQITWIGGNEEGCEAISFLLSLIDRLVLYCGSRLGKYYVKERSKAMVACYPGNGTGYVRHVDNPNGDGRCITCIYYLNKNWDAKLHGGILRIFPEGKSFIADVEPIFDRLLFFWSDRRNPHEVQPSYATRYAMTVWYFDAEERAEAKKKFRNLTRKTESALTED
With B1, the Km is 43.29 ± 7.295 µM in data set [1] (setting [5]); 43.3 ± 7.3 µM in data set [1] (other: increasing α-ketoglutarate, 100 μM peptide substrate, 10 μM PHD3); 24.03 ± 5.964 µM in data set [2] (setting [5]); 24.0 ± 6.0 µM in data set [2] (other: increasing HIF-1α peptide (P564), saturating concentrations of all other reagents, PHD3). Further, the kcat in data set [2] (setting [5]) stood at 3.637 ± 0.167 min⁻¹. The kcat/Km in data set [2] (setting [5]) is 2523 ± 466 M⁻¹ s⁻¹.
For the molecule ERIGFPLMIKASEGGGGK [synthetic ACC2 peptide encompassing the P450 residue], the Km of PHD3 for the ACC2 P450 peptide, initial rates of α-ketoglutarate consumption in the 2,4-DNPH α-KG assay (10 μM PHD3) in data set [3] came to 41.2 µM.

B2: PHD2_181-426 (Homo sapiens) (protein)
chain: PNGQTKPLPALKLALEYIVPCMNKHGICVVDDFLGKETGQQIGDEVRALHDTGKFTDGQLVSQKSDSSKDIRGDKITWIEGKEPGCETIGLLMSSMDDLIRHCNGKLGSYKINGRTKAMVACYPGNGTGYVRHVDNPNGDGRCVTCIYYLNKDWDAKVSGGILRIFPEGKAQFADIEPKFDRLLFFWSDRRNPHEVQPAYATRYAITVWYFDADERARAKVKYLTGEKGVRVELNKPSDSVGKDVF
As to B2, the Km was 12.0 ± 3.0 µM and 11.970 ± 3.006 µM in data set [1] (other: increasing α-ketoglutarate, 100 μM peptide substrate, 3 μM PHD2); 5.2 ± 0.9 µM and 5.192 ± 0.940 µM in data set [2] (other: increasing HIF-1α peptide (P564), saturating concentrations of all other reagents, 3 μM PHD2).
Regarding DLDLEMLAPYIPMDDDFQL [synthetic HIF-1α peptide encompassing the P564 residue (HIF-1α CODD, 19-mer)], in data set [4], the Km (app; substrate) of PHD3 for the HIF-1α peptide, initial rates of α-ketoglutarate consumption in the 2,4-DNPH α-KG assay (10 μM PHD3, 37 °C, pH 7.0) came to 0.024 mM.
